T1: mouse LAG-3 overexpressed on CHO cells (mouse, UniProt Q61790 24-521)
T1 construct: whole, on cells; also called CHO-mLAG-3 cells; mouse LAG-3 on the cell surface
T1 sequence (looked up): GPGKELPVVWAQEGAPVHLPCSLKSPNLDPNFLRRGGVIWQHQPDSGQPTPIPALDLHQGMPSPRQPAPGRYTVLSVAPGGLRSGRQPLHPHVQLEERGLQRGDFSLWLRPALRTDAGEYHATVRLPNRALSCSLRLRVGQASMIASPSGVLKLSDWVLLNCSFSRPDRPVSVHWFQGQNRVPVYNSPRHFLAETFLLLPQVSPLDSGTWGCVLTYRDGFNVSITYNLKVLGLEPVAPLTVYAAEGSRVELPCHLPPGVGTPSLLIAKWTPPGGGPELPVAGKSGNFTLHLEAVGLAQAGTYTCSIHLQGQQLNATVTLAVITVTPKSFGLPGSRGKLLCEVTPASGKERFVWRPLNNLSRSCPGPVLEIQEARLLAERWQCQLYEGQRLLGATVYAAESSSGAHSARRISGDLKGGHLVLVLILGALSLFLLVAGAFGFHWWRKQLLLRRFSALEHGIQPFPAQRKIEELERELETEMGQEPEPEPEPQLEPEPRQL

T2: human LAG-3-His (human, UniProt P18627 23-450)
T2 construct: Bought antigen (ArcoBiosystems), 100 nM in solution in the ForteBio assay; also called human LAG-3 antigen (ArcoBiosystems); hLAG-3; not shown: His tag
T2 sequence (looked up): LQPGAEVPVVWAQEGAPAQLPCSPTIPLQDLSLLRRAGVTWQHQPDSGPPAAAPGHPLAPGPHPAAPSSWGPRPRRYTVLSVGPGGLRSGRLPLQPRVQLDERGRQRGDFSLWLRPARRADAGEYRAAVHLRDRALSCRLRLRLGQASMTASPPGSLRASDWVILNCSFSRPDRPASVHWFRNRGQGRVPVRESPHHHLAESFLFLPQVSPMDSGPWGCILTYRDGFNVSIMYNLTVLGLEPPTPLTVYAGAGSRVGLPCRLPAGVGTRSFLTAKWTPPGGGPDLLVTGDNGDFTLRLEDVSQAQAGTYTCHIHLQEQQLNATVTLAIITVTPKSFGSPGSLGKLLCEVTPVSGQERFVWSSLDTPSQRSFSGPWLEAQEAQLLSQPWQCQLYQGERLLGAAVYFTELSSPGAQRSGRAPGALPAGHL

T3: human LAG-3 overexpressed on HEK293 cells (human, UniProt P18627 23-525)
T3 construct: whole, on cells; also called 293-hLAG-3 cells; hLAG-3 on the cell surface
T3 sequence (looked up): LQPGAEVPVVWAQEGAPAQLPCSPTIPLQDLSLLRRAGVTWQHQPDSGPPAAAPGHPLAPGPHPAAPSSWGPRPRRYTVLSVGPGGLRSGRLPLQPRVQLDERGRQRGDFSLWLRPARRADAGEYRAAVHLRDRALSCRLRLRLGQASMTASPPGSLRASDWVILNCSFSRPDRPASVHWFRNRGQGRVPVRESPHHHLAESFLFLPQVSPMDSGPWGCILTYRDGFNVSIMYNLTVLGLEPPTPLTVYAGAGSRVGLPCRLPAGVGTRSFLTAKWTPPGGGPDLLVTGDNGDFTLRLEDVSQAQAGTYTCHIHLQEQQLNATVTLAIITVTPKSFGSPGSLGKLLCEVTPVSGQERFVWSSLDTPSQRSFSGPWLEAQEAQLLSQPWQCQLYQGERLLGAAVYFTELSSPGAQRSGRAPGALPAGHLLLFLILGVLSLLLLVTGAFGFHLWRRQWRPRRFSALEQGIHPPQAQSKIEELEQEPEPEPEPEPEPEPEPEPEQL


What was measured:
human PD-L1 = biological target: T4, human PD-L1 (human, UniProt Q9NZQ7 19-238); experiment: BLI (ForteBio), antibody loaded on sensor, human PD-L1 in solution
T4 construct: Bought antigen; also called human PD-L1 antigen (Acrobiosystems)
T4 sequence (Q9NZQ7 19-238 limits assumed): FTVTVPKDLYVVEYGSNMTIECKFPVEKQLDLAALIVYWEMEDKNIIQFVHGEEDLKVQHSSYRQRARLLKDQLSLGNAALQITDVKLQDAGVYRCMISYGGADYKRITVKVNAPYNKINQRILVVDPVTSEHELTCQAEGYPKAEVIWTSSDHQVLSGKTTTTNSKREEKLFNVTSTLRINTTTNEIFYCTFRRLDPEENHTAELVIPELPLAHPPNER
Method: The equilibrium dissociation constant (KD) for binding of the anti-PD-L1 antibody (HZ3266-IgG1N297A) to human PD-L1 was determined by biological optical interferometry (ForteBio). A ForteBio affinity assay of prior art was performed (Estep, P., et al, High throughput solution based measurement of antibody-antigen affinity and epitope binning. MAbs, 2013.5(2):270-8).
SD buffer, antibodies, and antigens (including human PD-L1, all purchased from Acrobiosystems) each of 100 μL were added to 96-well black polystyrene half area microplates (Greiner, 675076). The sensors were arranged according to the positions of the samples. The instrument settings were as follows: the operation procedures were Baseline, Loading ˜1 nm, Baseline, Association, and Dissociation. The run time of each procedure was dependent on the rates of association and dissociation. The rotation speed was 400 rpm, and the temperature was 30° C. The KD values were analyzed by ForteBio analysis software.

[1] = biological target: T1, mouse LAG-3 overexpressed on CHO cells; experiment: flow cytometry (MFI) on CHO cells overexpressing mouse LAG-3; fit value from the EC50 table on the sheet for a flat curve (see non_binding); table has no unit of its own (concentration axis in nM)
human LAG-3-His [2] = biological target: T2, human LAG-3-His; experiment: BLI (ForteBio), antibody on AHQ tip, human LAG-3-His 100 nM in solution, univalent
Method: (§1) The purified antibody obtained as described above was loaded on-line onto an AHQ sensor (ForteBio) for ForteBio affinity assay. The sensor with the loaded antibody was then exposed to 100 nM of a human LAG-3 antigen (ArcoBiosystems) for 5 minutes before transferring the sensor to the assay buffer for dissociation for 5 minutes for dissociation rate measurement. Kinetic analysis was performed using a 1:1 binding model.

[3] = biological target: T3, human LAG-3 overexpressed on HEK293 …; experiment: flow cytometry on 293-hLAG-3 cells, MFI curve
Method: The binding of the 4 exemplary antibodies of the invention described above to human LAG-3 was measured in a flow cytometry-based assay. 293 cells (293-hLAG-3 cells) over-expressing human LAG-3 were generated by transfecting human embryonic kidney 293 cells (Invitrogen) with pCHO1.0 vectors (Invitrogen) carrying human LAG-3 cDNA (Sino Biological) cloned into multiple cloning sites (MCSs). 293-hLAG-3 cells (0.2×10⁶ cells) were mixed with different concentrations of antibodies (ADI-26789, ADI-26869 and reference 25F7) prepared as described above (the antibodies were serially three-fold diluted from a maximum concentration of 500 nM in PBS containing 0.1% bovine serum albumin (BSA) until the 8th concentration). The cells were incubated on ice for 30 min. The cells were then washed at least twice prior to addition of a secondary antibody (a PE-labeled goat anti-human IgG antibody, Southern Biotech, final concentration […]) diluted in 1:100, and incubated on ice (protected from light) for 30 minutes. The cells were washed at least twice and analyzed by flow cytometry. The flow cytometry assay was performed on an Accuri C6 system (BD Biosciences), and a concentration-dependent curve was fitted with GraphPad according to the mean fluorescence intensity (MFI).

human LAG-3-His [4] = biological target: T2, human LAG-3-His; experiment: BLI (ForteBio), antibody on AHQ tip, human LAG-3-His 100 nM in solution
Method: as §1

| Kd (human PD-L1) [nM] | EC50 [1] [nM] | Kd (human LAG-3-His [2]) [nM] | EC50 [3] [nM] | koff (human LAG-3-His [4]) [s⁻¹] | kon (human LAG-3-His [4]) [M⁻¹ s⁻¹] | Binder |
| --- | --- | --- | --- | --- | --- | --- |
| 0.724 |  |  |  |  |  | HZ3266-IgG1N297A (antibody, V domains shown, also called anti-PD-L1 antibody (HZ3266-IgG1N297A)) VH: EVQLVQSGAEVKKPGATVKISCTASGFNIEDTYIHWVQQAPGQGLEWIGRIDPANDDTKYAPKFQGRATITADTSTDTAYMELSSLRSEDTAVYYCGRGLGRWFAYWGQGTLVTVSS VL: GIVMTQSPDSLAVSLGERATINCKASQDVINAVAWYQQKPGQSPKLLIYSASNRYTGVPDRFSGSGSGTDFTLTISSLQAEDLAVYYCQQHYSPPLTFGGGTKVEIKR |
|  | ~0.7 | 0.844 | 1.41 | 0.0002 | 237000 | BAP050 (antibody, V domains shown) VH: QIQLVQSGPELKKPGETVKISCKASGFTLTNYGMNWVRQTPGKGLKWMGWINTDTGEPTYADDFKGRFAFSLETSASTASLQINNLKNADTATYFCARNPPYYYGTNNAEAMDYWGQGTAVTVSS VL: DIQMTQTTSSLSASLGDRVTISCSSSQDISNYLNWYQQKPDGTVKVLIYYTSTLHLGVPSRFSGSGSGTDYSLTISNLELEDIATYYCQQYYNLPWTFGGGTKLEIK |
|  | 0.857 |  |  |  |  | 25F7 (antibody, V domains shown) VH: QVQLQQWGAGLLKPSETLSLTCAVYGGSFSDYYWNWIRQPPGKGLEWIGEINHNGNTNSNPSLKSRVTLSLDTSKNQFSLKLRSVTAADTAVYYCAFGYSDYEYNWFDPWGQGTLVTVSS VL: EIVLTQSPATLSLSPGERATLSCRASQSISSYLAWYQQKPGQAPRLLIYDASNRATGIPARFSGSGSGTDFTLTISSLEPEDFAVYYCQQRSNWPLTFGQGTNLEIK |
|  |  | 7.88 | 2.91 | 0.00385 | 488000 | ADI-26869 (antibody, human IgG4 S228P, kappa, F234A L235A, V domains shown, Fully human antibody from yeast display; IgG4 heavy chain constant region with kappa light chain; expressed in HEK293 cells; also called anti-human LAG-3 antibody ADI-26869; parent antibody) VH: QLQLQESGPGLVKPSETLSLTCTVSGGSISSSDYYWGWIRQPPGKGLEWIGSIYYSGSTYYNPSLKSRVTISVDTSKNQFSLKLSSVTAADTAVYYCARVRTWDAAFDIWGQGTMVTVSS VL: DIQMTQSPSSLSASVGDRVTITCQASQDISNYLNWYQQKPGKAPKLLIYDASNLETGVPSRFSGSGSGTDFTFTISSLQPEDIATYYCQQVHALPPWTFGGGTKVEIKR |
|  |  | 18.3 | 2.14 | 0.00389 | 212000 | ADI-26789 (antibody, human IgG4 S228P, kappa, F234A L235A, V domains shown, Fully human antibody from yeast display; IgG4 heavy chain constant region with kappa light chain; also called anti-human LAG-3 antibody ADI-26789; parent antibody) VH: EVQLVESGGGLVQPGRSLRLSCAASGFTFDDYAMHWVRQAPGKGLEWVSGISWNSGDIGYADSVKGRFTISRDNAKNSLYLQMNSLRAEDTALYYCAKGGYDGSYYGMDVWGQGTTVTVSS VL: not shown |

Source: patent US20210371529A1 (Innovent, published 2021)
